This series concerns MS2 coat protein. Kind of series: apparent KD of MS2 coat protein; designed switch direction (-1 OFF switch, 1 ON switch): -1; higher = weaker reporter binding. Summed up: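 Designed RNA switches with common flanks were transcribed on Illumina chips by stalled E. coli RNA polymerase and titrated with SNAP-549-labelled MS2 coat protein, from 0.7 or 1.5 nM doubling to 3 µM, in Tris-HCl pH 7.5 buffer with KCl, MgCl2, BSA, DTT, tRNA and Tween-20. Steps lasted 0.8–1.5 h (lowest) to 10–20 min (highest). Titrations ran without input, with 200 uM small-molecule ligand, or with an oligonucleotide input. Normalised cluster fluorescence was curve-fitted, and apparent KD is the per-design median over clusters.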

Setting [1] is: Eterna round: R95, input ligand: microRNA oligo, concentration not stated.
Setting [2] is: input ligand: microRNA oligo, concentration not stated.

On to “CCGCAAAAGGAGGAUAUCGUAUCGGAUACGAUACGAGAAGGCUUUACAUGAGGAUCACCCAUGUGUCCUAGCGG [Fiskers Ex 6 - 47] (puzzle: Exclusion 6)”, for which, under setting [1], the “apparent KD of MS2 coat protein” value stood at 13.4 nM.
Consider “CAGUACUGAGGAUAUACAUGAGGAUCACCCAUGUGUGUGAGAAAAGGAAGAAAAGAAUGUAGAAGGCGGUGCUG [JR_Ex3_Sub040] (Eterna round: R97, puzzle: Exclusion 3)”, for which the “apparent KD of MS2 coat protein” value reads like this: (input ligand: FMN 200 uM) 240 nM; (input ligand: none) 486 nM.
As for “CUUUUGUUAGGAUAUUAGUAGUAAAUAAAUAAAAUUACUACUGAGAAGGCACAUGAGGAUCACCCAUGUUCCUC [salish99_ex4_r3_045] (puzzle: Exclusion 4)”, the “apparent KD of MS2 coat protein” value under setting [1] came out at 25.3 nM.
“UUCCUACAUGAGGAUCACCCAUGUCAGGAUAUAUAAAACGCUCUGGUAAUAGAGCAAGAUAGAAGGGAUUGGGA [Beeratve] (Eterna round: R97, puzzle: Exclusion 1)”: the “apparent KD of MS2 coat protein” value is, setting by setting: (input ligand: FMN 200 uM) 14.6 nM; (input ligand: none) 13.3 nM.
Turning to “UAUUCUGCGCUCGUCUUAUACAUGAGGAUCACCCAUGUUCUCAAGGUCUUAUGUACUGACACGAAAGUGUUAGUAAU [AK-miRNA-r3-3] (Eterna round: R97, puzzle: Sensor, turn-off variant 1)”, the “apparent KD of MS2 coat protein” value was 36.3 nM (input ligand: FMN 200 uM) and 41.6 nM (input ligand: none).
With “AUAGGAGGAGGAUAUGAAACCGAUAACAUGAGGAUCACCCAUGUCGAAAGAACUUUCCGGUCAGAAGGCCUGAUGU [Eternabot (L2) Solution 60] (Eterna round: R97, puzzle: Exclusion 5)”, the “apparent KD of MS2 coat protein” value (input ligand: FMN 200 uM) is 16.3 nM and the “apparent KD of MS2 coat protein” value (input ligand: none) stood at 25.1 nM.
For “UUCUGGACAGGAUAUGUACUUGAGCACUUGAGGAUCACCCAAGUCGUCAAGUACUCAGGCACAGAAGGGUUAAUUU [jl-ex5.4.67 ViennaUCT mod] (Eterna round: R97, puzzle: Exclusion 5)”, in that order: 30.7 nM and 15.3 nM.
With “AUAAUAAAGGAGGAUAUCGUUUCGGAAACGAAACGAGAAGGUCUAACAUGAGGAUCACCCAUGUUCCUCAAAUA [Mat - Exclusion 6 - Eli Mod - D52] (puzzle: Exclusion 6)”, the “apparent KD of MS2 coat protein” value (Eterna round: R95, input ligand: FMN 200 uM) stood at 66.4 nM; the “apparent KD of MS2 coat protein” value under setting [1] was determined as 33.3 nM; the “apparent KD of MS2 coat protein” value (Eterna round: R95, input ligand: none) was 53.5 nM.
Consider “GAGCAGCGAGGAUAUACAGACGGGUCCAGUACGUGUCUUGGACUUGAGGAUCACCCAAGUAGAAGGCGUCUCAG [salish99_ex2_r4_608] (Eterna round: R97, puzzle: Exclusion 2)”, for which the “apparent KD of MS2 coat protein” value is, setting by setting: (input ligand: FMN 200 uM) 86.8 nM; (input ligand: none) 44.3 nM.
Turning to “UUUUACGGAGGAUAUACAUUUUUUUUAUUAUCCUCAUUAUUACAUGAGGAUCACCCAUGUAGAAGGCCGAUUUU [My Design] (puzzle: Exclusion 2)”, under setting [1], the “apparent KD of MS2 coat protein” value was found to be 59.1 nM.
As to “UAUAUAUAGUAAGGAUAUGUAUAUAUUUUAUCAACAGAAGGUACUGACAUGAGGAUCACCCAUGUUUUAGUGUGGGCAUGUAGA [JMF's solution 71] (Eterna round: R96, puzzle: Exclusion NG 1)”, under setting [2], the “apparent KD of MS2 coat protein” value turned out to be 54.2 nM.
Take “AGAUUUGUAGUGAGGAUAUAGGAUGAGUAGUAGUACUAGAAGGCACAUGAGGAUCACCCAUGUAAGUGAAUGAG [Exclusion 4 mod test] (Eterna round: R97, puzzle: Brourd's mod of Exclusion 4)”: the “apparent KD of MS2 coat protein” value is, setting by setting: (input ligand: FMN 200 uM) 22.6 nM; (input ligand: none) 20.2 nM.
Turning to “UUCGUGCAGCUUUGCUGUACGCGUACAUGAGGAUCACCCAUGUAGGAUAUGGUAGGCAAAGCUUACUAGAAGGAUAUAGUGAUC [Mat - Exclusion NG 3 - Mod of JL - D78] (Eterna round: R96, puzzle: Exclusion NG 3)”, the “apparent KD of MS2 coat protein” value by setting is: (input ligand: FMN 200 uM) 66.7 nM; under setting [2], 41.7 nM; (input ligand: none) 64.5 nM.
For the sequence “AGCAAAUCAGGAUAUGUACUGGACGACAUGAGGAUCACCCAUGUGAUUCAGUGCGCGAGAACAGAAGGGAUUCGCU [Isor] (puzzle: Exclusion 5)”, the “apparent KD of MS2 coat protein” value under setting [1] amounted to 15.4 nM.
“UUAAUUAGCAGACUAAUACCUCACAUGAGGAUCACCCAUGUGCAGGAUAUCAGCUCGAUUAGAGCUGAGAAGGGCACUGUCUGC [ExNG3/12-A1] (Eterna round: R96, puzzle: Exclusion NG 3)”: the “apparent KD of MS2 coat protein” value (input ligand: FMN 200 uM) came out at 14.8 nM, the “apparent KD of MS2 coat protein” value under setting [2] is 8.01 nM and the “apparent KD of MS2 coat protein” value (input ligand: none) worked out at 11.3 nM.
As to “GUGUUUGAUGAGGAUAUCGAUGUGGGUAUAUAGCGAGAAGGCAUUACAUGAGGAUCACCCAUGUAGUGUGGGUU [JR_Ex6_Sub024] (Eterna round: R97, puzzle: Exclusion 6)”, the “apparent KD of MS2 coat protein” value by setting is: (input ligand: FMN 200 uM) 33.3 nM; (input ligand: none) 35.6 nM.
As to “GUGGAGUAAGGAUAUACAUGAGGAUCACCCAUGUGAGGGUAUGUGAUGGGAGUAGGUUGUAGAAGGUACGAGGA [JR_Exclu3_Sub068] (puzzle: Exclusion 3)”, the “apparent KD of MS2 coat protein” value under setting [1] was 160 nM.
Turning to “UCGCUGCGAGGAUAUACAUGAGGAUCACCCAUGUGCGGGUCCGGGUUUUCGUCCAUUAGUAGAAGGCGCAGUGA [JL Laongeedie mod 3] (puzzle: Exclusion 3)”, the “apparent KD of MS2 coat protein” value under setting [1] was 269 nM.

(Values after the supplement of paper PMC9170038.)
